Measurements taken from patent US20170209564A1.

How the values were obtained:
Details in all cases: remark: other sources report otherwise
[1] = molecular target: 48B11; assay: ELISA signal over HTRF expression signal, P. pastoris
[2] = molecular target: 36H2; assay: as above
[3] = molecular target: 75E9; assay: ELISA, coated CR6261, P. pastoris medium
[4] = molecular target: 58A5; assay: ELISA, coated CR6261, P. pastoris medium
[5] = molecular target: 67C10; assay: ELISA, coated CR6261, P. pastoris medium
[6] = molecular target: 54H4; assay: ELISA, coated CR6261, P. pastoris medium
[7] = molecular target: 87H5; assay: ELISA, coated CR6261, P. pastoris medium
[8] = molecular target: 7D9; assay: ELISA, coated CR6261, P. pastoris medium
[9] = molecular target: 11B4; assay: ELISA, coated CR6261, P. pastoris medium
[10] = molecular target: 71H2; assay: ELISA, coated CR6261, P. pastoris medium
[11] = molecular target: 72D4; assay: ELISA, coated CR6261, P. pastoris medium
[12] = molecular target: 2D9; assay: ELISA, coated CR6261, P. pastoris medium
[13] = molecular target: 4C1; assay: ELISA, coated CR6261, P. pastoris medium
[14] = molecular target: 11F4; assay: ELISA, coated CR6261, P. pastoris medium
[15] = molecular target: 71D3; assay: ELISA, coated CR6261, P. pastoris medium
[16] = molecular target: 91C8; assay: ELISA, coated CR6261, P. pastoris medium
[17] = molecular target: 7A7; assay: ELISA, coated CR6261, P. pastoris medium
[18] = molecular target: 51G3; assay: ELISA, coated CR6261, P. pastoris medium
[19] = molecular target: 35H3; assay: ELISA, coated CR6261, P. pastoris medium
[20] = molecular target: 71A4; assay: ELISA, coated CR6261, P. pastoris medium
[21] = molecular target: 50G10; assay: ELISA, coated CR6261, P. pastoris medium
[22] = molecular target: 48B10; assay: ELISA, coated CR6261, P. pastoris medium
[23] = molecular target: 2C4; assay: ELISA, coated CR6261, P. pastoris medium
[24] = molecular target: 48B11; assay: ELISA, coated CR6261, P. pastoris medium
[25] = molecular target: 78G2; assay: ELISA, coated CR6261, P. pastoris medium
[26] = molecular target: 80F10; assay: ELISA, coated CR6261, P. pastoris medium
[27] = molecular target: 79F8; assay: ELISA, coated CR6261, P. pastoris medium
[28] = molecular target: 9C10; assay: ELISA, coated CR6261, P. pastoris medium
[29] = molecular target: 86B3; assay: ELISA, coated CR6261, P. pastoris medium
[30] = molecular target: 81F11; assay: ELISA, coated CR6261, P. pastoris medium
[31] = molecular target: 6A1; assay: ELISA, coated CR6261, P. pastoris medium
[32] = molecular target: 9C6; assay: ELISA, coated CR6261, P. pastoris medium
[33] = molecular target: 7B6; assay: ELISA, coated CR6261, P. pastoris medium
[34] = molecular target: 55G7; assay: ELISA, coated CR6261, P. pastoris medium
[35] = molecular target: 58A11; assay: ELISA, coated CR6261, P. pastoris medium
[36] = molecular target: 86F1; assay: ELISA, coated CR6261, P. pastoris medium
[37] = molecular target: 74H9; assay: ELISA, coated CR6261, P. pastoris medium
[38] = molecular target: 63D3; assay: ELISA, coated CR6261, P. pastoris medium
[39] = molecular target: 70F6; assay: ELISA, coated CR6261, P. pastoris medium
[40] = molecular target: 75H8; assay: ELISA, coated CR6261, P. pastoris medium
[41] = molecular target: 75G5; assay: ELISA, coated CR6261, P. pastoris medium
[42] = molecular target: 11H6; assay: ELISA, coated CR6261, P. pastoris medium
[43] = molecular target: 10F9; assay: ELISA, coated CR6261, P. pastoris medium
[44] = molecular target: 850; assay: ELISA, coated CR6261, P. pastoris medium
[45] = molecular target: 96A7; assay: ELISA, coated CR6261, P. pastoris medium
[46] = molecular target: 86B4; assay: ELISA, coated CR6261, P. pastoris medium
[47] = molecular target: 86H9; assay: ELISA, coated CR6261, P. pastoris medium
[48] = molecular target: 79C2; assay: ELISA, coated CR6261, P. pastoris medium

B1: CR6261 (antibody, V domains shown)
VH: EVQLVESGAEVKKPGSSVKVSCKASGGPFRSYAISWVRQAPGQGPEWMGGIIPIFGTTKYAPKFQGRVTITADDFAGTVYMELSSLRSEDTAMYYCAKHMGYQVRETMDVWGKGTTVTVSS
VL: QSVLTQPPSVSAAPGQKVTISCSGSSSNIGNDYVSWYQQLPGTAPKLLIYDNNKRPSGIPDRFSGSKSGTSATLGITGLQTGDEANYYCATWDRRPTAYVVFGGGTKLTVLG
**Q.** What does the source list for B1?
**A.** fold increase of ratio over parental SEQ ID NO: 6 [1]: 3.41; ratio (binding signal/HTRF signal) [1]: 20.3; fold increase of ratio over parental SEQ ID NO: 6 [2]: 1.95; ratio (binding signal/HTRF signal) [2]: 11.6; CR6261 binding signal [3]: 135000; CR6261 binding signal [4]: 90700; CR6261 binding signal [5]: 306000; CR6261 binding signal [6]: 292000; CR6261 binding signal [7]: 78100; CR6261 binding signal [8]: 77800; CR6261 binding signal [9]: 166000; CR6261 binding signal [10]: 1.11e+06; CR6261 binding signal [11]: 330000; CR6261 binding signal [12]: 316000; CR6261 binding signal [13]: 386000; CR6261 binding signal [14]: 151000; CR6261 binding signal [15]: 1.57e+06; CR6261 binding signal [16]: 334000; CR6261 binding signal [17]: 988000; CR6261 binding signal [18]: 460000; CR6261 binding signal [19]: 106000; CR6261 binding signal [20]: 1.05e+06; CR6261 binding signal [21]: 264000; CR6261 binding signal [22]: 103000; CR6261 binding signal [23]: 258000; CR6261 binding signal [24]: 303000; CR6261 binding signal [25]: 56700; CR6261 binding signal [26]: 90900; CR6261 binding signal [27]: 185000; CR6261 binding signal [28]: 114000; CR6261 binding signal [29]: 901000; CR6261 binding signal [30]: 318000; CR6261 binding signal [31]: 300000; CR6261 binding signal [32]: 271000; CR6261 binding signal [33]: 60400; CR6261 binding signal [34]: 616000; CR6261 binding signal [35]: 53300; CR6261 binding signal [36]: 159000; CR6261 binding signal [37]: 1.28e+06; CR6261 binding signal [38]: 146000; CR6261 binding signal [39]: 419000; CR6261 binding signal [40]: 103000; CR6261 binding signal [41]: 1.01e+06; CR6261 binding signal [42]: 427000; CR6261 binding signal [43]: 166000; CR6261 binding signal [44]: 196000; CR6261 binding signal [45]: 83300; CR6261 binding signal [46]: 1.08e+06; CR6261 binding signal [47]: 457000; CR6261 binding signal [48]: 364000
